Consider 15 molecules from US20170233449A1 (Teva, published 2017).

Assay [1] addresses T1, cynomolgus monkey CD38 extracellular domain (ECD), tagged (cynomolgus monkey, Avitag biotinylated (in the ELISAs)).
T1 construct: also called cynomolgus monkey CD38 ED
T1 chain: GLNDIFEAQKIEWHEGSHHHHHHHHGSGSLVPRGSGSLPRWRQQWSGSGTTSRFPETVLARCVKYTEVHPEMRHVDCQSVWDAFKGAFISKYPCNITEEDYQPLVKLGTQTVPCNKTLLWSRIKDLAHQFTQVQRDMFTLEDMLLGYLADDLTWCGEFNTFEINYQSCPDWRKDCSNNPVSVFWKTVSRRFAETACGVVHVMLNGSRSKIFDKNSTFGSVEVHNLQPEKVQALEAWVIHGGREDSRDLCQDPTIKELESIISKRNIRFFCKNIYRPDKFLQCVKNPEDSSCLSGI
Put plainly: SPR (Biacore T200), antibody captured on Protein A, CD38 ED as analyte, 1:1 Langmuir fit.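 Also: CM5 sensor chip in HBS-P buffer at pH 7.4, antibody loaded at 5 µg/mL, responses corrected against a blank reference flow cell before fitting.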 For orientation: SPR reads the build-up and loss of mass on a sensor chip optically.
Procedure: (§1) Briefly, using a Biacore T200, Protein A was immobilized onto Flow Cell (FC) 1 (FC1) and FC2 (or alternatively FC3 and FC4) of a CM5 research grade sensor chip using amine coupling, giving approximately 2000 RU. FC1 was used as a blank throughout the experiments. The experiments were run in HBS-P buffer (0.01 M HEPES pH 7.4, 0.15 M NaCl, 0.005% v/v Surfactant P20). At a flow rate of 20 μl/min, 20 μl of 5 μg/mL of antibody was passed over FC2. […] Regeneration of the surface was performed using 10mM Glycine, pH 1.0. The FC1 sensorgram data was subtracted from FCS and the curves were fitted using a 1:1 Langmuir equation to generate the kd, kₐ and KD values.

The target in assay [2] is T2, human CD38 extracellular domain (ECD), tagged (human, Avitag biotinylated (in the ELISAs)).
T2 construct: also called human CD38 ED; biotinylated human CD38
The description is as above.
Procedure: as §1

Assay [3] has as its target T1, cynomolgus monkey CD38 extracellular …. Put plainly: ELISA, biotinylated CD38 ED on streptavidin plates, FAb lysate, anti-V5-HRP. (ELISA stands for enzyme-linked immunosorbent assay.)
Procedure: (§2) Plates were then washed and individual FAb samples (prepared as described above) were added to individual wells on the ELISA plates. FAbs were allowed to bind the captured CD38 ED for an hour at room temperature and then washed three times with PBS-T (1× PBS supplemented with 0.1% Tween®20). FAbs that bound to CD38 ED were detected by incubation for 30 minutes at room temperature with an anti-V5-HRP conjugated antibody (Invitrogen, Carlsbad, Calif.) to detect the V5 tag fused to the C-terminus of the FAb heavy chain. Plates were washed to remove unbound antibody and the assay signal developed by incubation with 50 μL 3,3′,5,5′-Tetramethylbenzidine (Sigma-Adrich, St. Louis, Mo.) and quenching with 50 μL 1 M HCl. Assay signals were read at A450 nm using a microplate reader (BMG Labtech). Results were expressed as the raw A450 nm value, where any signal 2-fold greater than the average assay background was defined as ‘positive’.
(§3) In later assays FAb cross-reactivity with cynomolgus monkey CD38 ED was assessed by coating biotinylated cynomolgus monkey CD38 ED onto streptavidin coated ELISA plates and proceeding as described above.
Assay [4] concerns the target T2, human CD38 extracellular domain (ECD), …. Described as above.
Procedure: as §2, §3
Assay [5] concerns the target T1, cynomolgus monkey CD38 extracellular …. Put plainly: ELISA, hybridoma supernatant coated, biotinylated CD38 ED in solution.
Procedure: (§4) Following incubation for 1 hour at room temperature, plates were washed as described previously. To one well of each rat antibody duplicate well was added 0.1 μg of biotinylated human CD38 in a final volume of 100 μL 1× PBS. To the second well of each rat antibody duplicate well was added 0.1 μg of biotinylated cynomolgus monkey CD38 ED in a final volume of 100 μL 1× PBS. Plate wells were washed as described previously prior to detection of bound biotinylated CD38 ED using a Streptavidin-HRP conjugate (BD Biosciences, San Diego, Calif.). Plates were washed as above to remove unbound Streptavidin-HRP conjugate and the assay signal developed by incubation with 50 μL 3,3′,5,5′-Tetramethylbenzidine (Sigma-Aldrich) and quenching with 50 μL 1 M HCl. Assay signals were read at A₄₅₀ nm using a microplate reader (BMG Labtech, Cary, N.C.).
For assay [6], the target named is T2, human CD38 extracellular domain (ECD), …. The assay is described as above.
Procedure: as §4
Another assay deals with human CD38 on cells (human, UniProt P28907 1-300). As to the kind of experiment: flow cytometry, hybridoma supernatant on RPMI-8226 cells; background MFI average 153. In general terms: A flow cytometer gives signals particle by particle.

Procedure for human CD38 on cells: Viable RPMI-8226 cells (2×10⁵, as judged by trypan blue exclusion) were incubated with 100 μL of rat hybridoma supernatant for 20 minutes on ice in the dark. Cells were washed twice with FACS buffer (1× PBS plus 1% FCS) before incubation for 20 minutes in 100 μl of FACS buffer containing anti-rat IgG-FITC conjugate (Sigma-Aldrich). After washing cells in FACS buffer, they were resuspended in FACS buffer and analysed for antibody-binding by flow cytometry on a FACS Canto (BD Biosciences, San Diego, Calif.) using EV, side scatter and FL-1 gating. Results were expressed as mean fluorescent intensity (MFI).

B1: X355/07 IgG1 (antibody, V domains shown)
VH: QVQLQESGPGLVKPSETLSLTCAVYGGSFSGYYWSWIRQPPGKGLEWIGSIYHSGSTYYNPSLKSRVTISVDTSKNQFSLKLSSVTAADTAVYYCARDLYYYYGMDVWGQGTTVTVSS
VL: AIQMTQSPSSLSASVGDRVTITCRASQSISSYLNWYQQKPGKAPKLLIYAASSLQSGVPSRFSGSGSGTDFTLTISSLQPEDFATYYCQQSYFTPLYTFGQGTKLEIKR
notes: human IgG1 from phage-derived Fab
The term Kd denotes the free concentration of one partner at which half of the binding sites on the other are occupied at equilibrium, for simple one-to-one binding. As a reminder, the koff is the first-order rate constant of dissociation. For orientation: kon means the rate constant with which the complex forms. Take B1: in assay [1], the Kd turned out to be 12.2 nM, the koff is 0.0138 s⁻¹ and the on-rate (kon) was 1.13e+06 M⁻¹ s⁻¹. In assay [2], this molecule had a dissociation constant Kd of 11.4 nM, a koff of 0.00132 s⁻¹ and a kon of 115000 M⁻¹ s⁻¹.

B2: X913/15 FAb (Fab, V domains shown)
VH: QVQLVESGGGVVQGGGSLRLSCAASGFTVRSNYMSWVRQAPGKGLEWVSAISGSGDSTYYADSVKGRFTISRDNSKNTLYLQMNSLRAEDTAVYYCAKVAVTTGWYFDLWGRGTLVTVSS
VL: QAVLTQPASLSASPGESARLTCTLPSDINVRYHNIYWYQEKPGSPPRYLLYYYSDSSKGQGSGVPSRFSGSKDVSTNTGILVISGLQSEDEAEYYCMTWSSNGSGVFGGGTQLTVL
notes: human Fab from E. coli lysate, V5 tag at the C-terminus of the Fab heavy chain
For B2, the binding result in assay [3] and in assay [4] was “binds” each time.

B3: X910/12 FAb (Fab, V domains shown)
VH: EVQLVQSGAEVKKSGASVKVSCKASGYTFTDYYIHWVRQAPGQGLEWMGWINPNNGGVTFAQKFQGRVTMTRDTSISTAYMDLSSLRSDDTAVYFCARDIRMSGWLAPFDYWGQGTLVTVSS
VL: QAVLTQPASLSASPGESARLTCTLPSDINVRYYNIYWYQQKPGSPPRYLLYYYSDSHKDQGSGVPSRFSGSKDTSANTGILLISGLQSEDEADYYCMIWASNGSGVLGGGTQLTVL
notes: as for B2
With B3, the binding result in assay [3] and in assay [4] was “binds” each time.

B4: R7F11 (rat hybridoma antibody) (antibody, V domains shown)
VH: QIQLVQSGPGLKKPGESVKISCKASGYTFTDYSMHWVKQAPGKGLQWMGWINTYSGKPTYAADFKGRFVFSLEASASTANLQISNLKNEDTATYFCARCYDGTFYYDPMDAWGQGTSVTVSS
VL: NIVLTQSPATLSVTPGESVSLSCRASQSIGTSIHWYQQKSNESPRLLIRYASQSISGIPSRFSGSGSGTDFTLSINRVESEDFSIYYCQQSYSSLVTFGSGTKLEIK
notes: tested as rat hybridoma supernatant; kappa light chain
Take B4: the binding result in assay [5] and in assay [6] was “binds” each time. The MFI with human CD38 on cells stood at 11900 MFI.

B5: R7H11 (rat hybridoma antibody) (antibody, V domains shown)
VH: QVQLKESGPGLLLSSETLSLTCTVSGFSLTSYEVSWVRQLPGRGLEWMGRVWIGGDTDYNSDLKSRLSISRDIAKSQVFLKMSNLKTEDTGTYYCARAYGFNYWSFDFWGPGTMVTVSS
VL: GQFTLTQPKSVSGSLRSTITIPCERSSGDIGDNYVTWYQQHLGRPPLNVIYADDQRPSEVSDRFSGSIDSSSNSASLTITNLQMDDEADYFCQSYDSNTDIIFGGGTKVTVL
notes: tested as rat hybridoma supernatant; lambda light chain
Regarding B5, the MFI with human CD38 on cells was determined as 680 MFI.

B6: R10B10 (rat hybridoma antibody) (antibody, V domains shown)
VH: QVQLKESGPGLVQPSETLSLTCTVSGFSLTSYGVNWVRQPPGKGLEWMGRIWNDGSIDYNSALKSRLSISRDTSKGQVFLKMNSLQTEDTAIYFCARGPYNNYWYFDFWGPGTMVTVLS
VL: GQFTLTQPKSVSGSLRSTITIPCERSSGDIGDNYVSWYQQHLGRPPINVIYADDQRPSEVSDRFSGSIDSSSNSASLTITNLQMDDEADYFCQSYDSNIDIIFGGGTKLTVL
notes: as for B5
Turning to B6, the MFI with human CD38 on cells came out at 858 MFI.

B7: R5E8 IgG1 (antibody, V domains shown)
VH: EVQLQQSGPEVGRPGSSVKISCKASGYIFTDYIMHWVKQSPGQGLEWIGWIDPEYGSTDYAEKFKKKATLTADTSSSTAYIQLSSLTSEDTATYFCARVAIITTVASGGFAYWGQGTLVTVSS
VL: DIVMTQGALPNPVPSGESASITCQSSESLLHSNGKTYLNWYLQRPGQSPQLLIYWMSTRAAGVSDRFSGSGSGTDFTLTISGVEAEDVGVYYCQQFLEYPPTFGSGTKLEIKR
notes: chimeric rat-human IgG1
In assay [1], B7 showed an equilibrium dissociation constant (Kd) of 4.2 nM, a koff of 0.0019 s⁻¹ and a kon of 452000 M⁻¹ s⁻¹. For the same molecule, in assay [2], the affinity, expressed as Kd, was 2.9 nM; the koff worked out at 0.00118 s⁻¹; the kon was determined as 405000 M⁻¹ s⁻¹.

B8: R5E8 (rat hybridoma antibody) (antibody, V domains shown)
VH: EVQLQQSGPEVGRPGSSVKISCKASGYIFTDYIMHWVKQSPGQGLEWIGWIDPEYGSTDYAEKFKKKATLTADTSSSTAYIQLSSLTSEDTATYFCARVAIITTVASGGFAYWGQGTLVTVSS
VL: DIVMTQGALPNPVPSGESASITCQSSESLLHSNGKTYLNWYLQRPGQSPQLLIYWMSTRAAGVSDRFSGSGSGTDFTLTISGVEAEDVGVYYCQQFLEYPPTFGSGTKLEIK
notes: as for B4
B8 displayed an MFI in the assay with human CD38 on cells of 10600 MFI.

B9: R5D1 IgG1 (antibody, V domains shown)
VH: EVQLQQSGPEVGRPGSSVKISCKASGYTFTDYIMHWVKQSPGQGLEWIGWIDPEYGRTDYAEKFKKKATLTADTSSSTAYIQLSSLASEDTATYFCARSAHTTGFGFAYWGQGTLVTVSS
VL: DIQMTQSPASLSASLGETVTIECRASEDIYSNLAWYQQKPGNSPQLLIYDANSLADGVPSRFSASGSGTQFSLKINSLRSEDVASYFCQQYNNYPYTFGAGTKLELKR
notes: chimeric rat-human IgG1
As for B9, in assay [1], the equilibrium dissociation constant (Kd) is 1 nM, the koff is 0.0011 s⁻¹ and the kon came to 1.11e+06 M⁻¹ s⁻¹. Further, in assay [2], the Kd came out at 1 nM, the off-rate constant (koff) was 0.000239 s⁻¹ and the kon was 243000 M⁻¹ s⁻¹.

B10: R5D1 (rat hybridoma antibody) (antibody, V domains shown)
VH: EVQLQQSGPEVGRPGSSVKISCKASGYTFTDYIMHWVKQSPGQGLEWIGWIDPEYGRTDYAEKFKKKATLTADTSSSTAYIQLSSLASEDTATYFCARSAHTTGFGFAYWGQGTLVTVSS
VL: DIQMTQSPASLSASLGETVTIECRASEDIYSNLAWYQQKPGNSPQLLIYDANSLADGVPSRFSASGSGTQFSLKINSLRSEDVASYFCQQYNNYPYTFGAGTKLELK
notes: as for B4
As for B10, the MFI with human CD38 on cells was 12200 MFI.

B11: X355/02 IgG1 (antibody, V domains shown)
VH: QLQLQESGPGLVKPSETLSLTCTVSGGSISSSSYYWSWIRQHPGKGLEWIGYIYYSGSTNYNPSLKSRVTISVDTLKNQISLRLTSVTAADTAVYYCARVGGAGGWPMDVWGQGTTVTVSS
VL: QAVLTQPASLSASPGESARLTCTLPSDINVRYYNIYWYQQKPGSPPRYLLYYYSDSHKGQGSGVPSRFSGSKDVSTNSGILLISGLQSEDEADYYCMTWSSNGSGVFGGGTQLTVLG
notes: as for B1
In assay [1], B11 gave a Kd of 27.4 nM, a koff of 0.00228 s⁻¹ and an on-rate (kon) of 83400 M⁻¹ s⁻¹. In assay [2], the affinity, expressed as Kd, was 7.6 nM; the off-rate constant (koff) was determined as 0.000892 s⁻¹; the kon is 118000 M⁻¹ s⁻¹.

B12: R10A2 (rat hybridoma antibody) (antibody, V domains shown)
VH: EVQLQQSGPEVGRPGSSVKISCKASGYTFTDSVMNWVKQSPGQGLEWIGWIDPEYGRTDVAEKFKKKATLTADSSSSTAYIYLSGLTSEDTATYFCARTKYNSGYGFPYWGQGSLVTVSS
VL: DIVMTQSPTSISISVGERVTMNCKASQNVDSDVDWYQQKTGQSPKLLIYKASNRYTGVPDRFTGSGSGTDFTFTISNMQAEDLAVYYCMQSNTHPRTFGGGTKLELK
notes: as for B4
In the case of B12, the MFI in the assay with human CD38 on cells was 4470 MFI.

B13: R10A2 IgG1 (antibody, V domains shown)
VH: EVQLQQSGPEVGRPGSSVKISCKASGYTFTDSVMNWVKQSPGQGLEWIGWIDPEYGRTDVAEKFKKKATLTADSSSSTAYIYLSGLTSEDTATYFCARTKYNSGYGFPYWGQGSLVTVSS
VL: DIVMTQSPTSISISVGERVTMNCKASQNVDSDVDWYQQKTGQSPKLLIYKASNRYTGVPDRFTGSGSGTDFTFTISNMQAEDLAVYYCMQSNTHPRTFGGGTKLELKR
notes: chimeric rat-human IgG1
For the molecule B13, in assay [1], the Kd came to 2.2 nM, the koff was found to be 0.00193 s⁻¹ and the kon amounted to 898000 M⁻¹ s⁻¹. Further, in assay [2], the Kd worked out at 0.7 nM, the koff is 0.000479 s⁻¹ and the association rate constant (kon) is 660000 M⁻¹ s⁻¹.

B14: X355/01 FAb (Fab, V domains shown)
VH: QVQLVQSGAEVKKPGSSVKVSCKASGGNFISYSISWVRQAPGKRLEWMGWIIPIFGTTTYVQKFQGRVTITADESTSTAYMELSSLRSEDTAVYYCARVKYGSGSYYPNNWFDPWGQGTLVTVSS
VL: EIVLTQSPATLSASPGERATLSCRASQSISSNLAWYQQKPGQAPRLLIQDSSTRATGIPARFSGSGSGTEFTLTISSLQSEDFAVYYCQQSDNWPLTFGGGTKVDIK
notes: as for B2
For B14, the binding result in assay [3] and in assay [4] was “binds” each time.

B15: X355/04 FAb (Fab, V domains shown)
VH: QVQLVQSGAEVKKPGSSVKVSCKASGGTFSSYAISWVRQAPGQGLEWMGGIIPIFGTANYAQKFQGRVTITADESTSTAYMELSSLRSEDTAVYYCARDSSSWYFTYGYFQHWGQGTLVTVSS
VL: DVVMTQSPLSLPVTPGEPASISCRSSQSLLNSNGYNYLEWYVQKPGQSPQLLIFLGSNRASGVPDRFSGSGSGTDFTLKINRVEAEDVGVYYCMQALQSPLTFGGGTKVEIK
notes: as for B2
Regarding B15, the binding result in assay [3] and in assay [4] was “binds” each time.
